# Results: IntAct's records for PubMed 11854298
# B1: Peroxisome proliferator-activated receptor gamma coactivator 1-beta (Homo sapiens), Q86YN6 (parent)
# chain: MAGNDCGALLDEELSSFFLNYLADTQGGGSGEEQLYADFPELDLSQLDASDFDSATCFGELQWCPENSETEPNQYSPDDSELFQIDSENEALLAELTKTLDDIPEDDVGLAAFPALDGGDALSCTSASPAPSSAPPSPAPEKPSAPAPEVDELSLLQKLLLATSYPTSSSDTQKEGTAWRQAGLRSKSQRPCVKADSTQDKKAPMMQSQSRSCTELHKHLTSAQCCLQDRGLQPPCLQSPRLPAKEDKEPGEDCPSPQPAPASPRDSLALGRADPGAPVSQEDMQAMVQLIRYMHTYCLPQRKLPPQTPEPLPKACSNPSQQVRSRPWSRHHSKASWAEFSILRELLAQDVLCDVSKPYRLATPVYASLTPRSRPRPPKDSQASPGRPSSVEEVRIAASPKSTGPRPSLRPLRLEVKREVRRPARLQQQEEEDEEEEEEEEEEEKEEEEEWGRKRPGRGLPWTKLGRKLESSVCPVRRSRRLNPELGPWLTFADEPLVPSEPQGALPSLCLAPKAYDVERELGSPTDEDSGQDQQLLRGPQIPALESPCESGCGDMDEDPSCPQLPPRDSPRCLMLALSQSDPTFGKKSFEQTLTVELCGTAGLTPPTTPPYKPTEEDPFKPDIKHSLGKEIALSLPSPEGLSLKATPGAAHKLPKKHPERSELLSHLRHATAQPASQAGQKRPFSCSFGDHDYCQVLRPEGVLQRKVLRSWEPSGVHLEDWPQQGAPWAEAQAPGREEDRSCDAGAPPKDSTLLRDHEIRASLTKHFGLLETALEEEDLASCKSPEYDTVFEDSSSSSGESSFLPEEEEEEGEEEEEDDEEEDSGVSPTCSDHCPYQSPPSKANRQLCSRSRSSSGSSPCHSWSPATRRNFRCESRGPCSDRTPSIRHARKRREKAIGEGRVVYIQNLSSDMSSRELKRRFEVFGEIEECEVLTRNRRGEKYGFITYRCSEHAALSLTKGAALRKRNEPSFQLSYGGLRHFCWPRYTDYDSNSEEALPASGKSKYEAMDFDSLLKEAQQSLH
# B2: Estrogen receptor (Homo sapiens), P03372 (parent)
# chain: MTMTLHTKASGMALLHQIQGNELEPLNRPQLKIPLERPLGEVYLDSSKPAVYNYPEGAAYEFNAAAAANAQVYGQTGLPYGPGSEAAAFGSNGLGGFPPLNSVSPSPLMLLHPPPQLSPFLQPHGQQVPYYLENEPSGYTVREAGPPAFYRPNSDNRRQGGRERLASTNDKGSMAMESAKETRYCAVCNDYASGYHYGVWSCEGCKAFFKRSIQGHNDYMCPATNQCTIDKNRRKSCQACRLRKCYEVGMMKGGIRKDRRGGRMLKHKRQRDDGEGRGEVGSAGDMRAANLWPSPLMIKRSKKNSLALSLTADQMVSALLDAEPPILYSEYDPTRPFSEASMMGLLTNLADRELVHMINWAKRVPGFVDLTLHDQVHLLECAWLEILMIGLVWRSMEHPGKLLFAPNLLLDRNQGKCVEGMVEIFDMLLATSSRFRMMNLQGEEFVCLKSIILLNSGVYTFLSSTLKSLEEKDHIHRVLDKITDTLIHLMAKAGLTLQQQHQRLAQLLLILSHIRHMSNKGMEHLYSMKCKNVVPLYDLLLEMLDAHRLHAPTSRGGASVEETDQSHLATAGSTSSHSLQKYYITGEAEGFPATV
# partner: B1 chain
# Variants of: B1
# Details: with esr1_human ESR1, P03372
row,effect of a mutation on the interaction,Variant
1,decreasing interaction strength,L155A;L156A;L159A;L160A
2,disrupting interaction strength,L155A;L156A;L159A;L160A;L343A;L346A;L347A
3,decreasing interaction strength,L343A;L346A;L347A

# Variants of: B2
# Details: with prgc2_human PPARGC1B
row,effect of a mutation on the interaction,Variant
1,disrupting interaction strength,L539A;L540A
